Laboratory results: IntAct's records for PubMed 19430481

Target: rpgr_mouse Rpgr (UniProt Q9R0X5)
Sequence (Q9R0X5 whole entry): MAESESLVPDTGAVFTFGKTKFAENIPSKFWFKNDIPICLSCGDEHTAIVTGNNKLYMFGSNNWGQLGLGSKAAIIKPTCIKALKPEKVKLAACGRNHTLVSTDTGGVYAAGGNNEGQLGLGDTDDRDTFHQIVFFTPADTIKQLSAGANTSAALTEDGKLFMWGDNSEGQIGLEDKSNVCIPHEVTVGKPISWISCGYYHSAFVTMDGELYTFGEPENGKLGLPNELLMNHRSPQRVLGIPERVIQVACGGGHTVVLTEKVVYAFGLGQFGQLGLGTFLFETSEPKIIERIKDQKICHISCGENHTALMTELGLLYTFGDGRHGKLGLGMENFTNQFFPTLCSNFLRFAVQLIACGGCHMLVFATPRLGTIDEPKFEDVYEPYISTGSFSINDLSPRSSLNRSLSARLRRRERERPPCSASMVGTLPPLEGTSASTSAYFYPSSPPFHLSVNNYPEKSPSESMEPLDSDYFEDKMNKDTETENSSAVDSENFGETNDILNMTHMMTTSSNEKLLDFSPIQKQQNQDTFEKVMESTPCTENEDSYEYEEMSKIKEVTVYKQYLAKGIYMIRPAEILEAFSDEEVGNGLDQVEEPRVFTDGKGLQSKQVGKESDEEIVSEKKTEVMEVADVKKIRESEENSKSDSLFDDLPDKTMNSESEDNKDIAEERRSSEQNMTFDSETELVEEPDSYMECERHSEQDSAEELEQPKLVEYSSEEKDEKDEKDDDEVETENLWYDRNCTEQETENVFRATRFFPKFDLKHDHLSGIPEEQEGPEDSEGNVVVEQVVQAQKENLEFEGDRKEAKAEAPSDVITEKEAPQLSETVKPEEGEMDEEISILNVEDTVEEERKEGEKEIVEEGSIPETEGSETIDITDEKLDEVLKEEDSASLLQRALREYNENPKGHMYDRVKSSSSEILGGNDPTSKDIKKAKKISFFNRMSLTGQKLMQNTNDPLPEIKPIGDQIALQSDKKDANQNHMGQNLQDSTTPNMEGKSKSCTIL

Sequence of Protein fantom (Homo sapiens), Q68CZ1 A229T (Q68CZ1 whole entry A229T): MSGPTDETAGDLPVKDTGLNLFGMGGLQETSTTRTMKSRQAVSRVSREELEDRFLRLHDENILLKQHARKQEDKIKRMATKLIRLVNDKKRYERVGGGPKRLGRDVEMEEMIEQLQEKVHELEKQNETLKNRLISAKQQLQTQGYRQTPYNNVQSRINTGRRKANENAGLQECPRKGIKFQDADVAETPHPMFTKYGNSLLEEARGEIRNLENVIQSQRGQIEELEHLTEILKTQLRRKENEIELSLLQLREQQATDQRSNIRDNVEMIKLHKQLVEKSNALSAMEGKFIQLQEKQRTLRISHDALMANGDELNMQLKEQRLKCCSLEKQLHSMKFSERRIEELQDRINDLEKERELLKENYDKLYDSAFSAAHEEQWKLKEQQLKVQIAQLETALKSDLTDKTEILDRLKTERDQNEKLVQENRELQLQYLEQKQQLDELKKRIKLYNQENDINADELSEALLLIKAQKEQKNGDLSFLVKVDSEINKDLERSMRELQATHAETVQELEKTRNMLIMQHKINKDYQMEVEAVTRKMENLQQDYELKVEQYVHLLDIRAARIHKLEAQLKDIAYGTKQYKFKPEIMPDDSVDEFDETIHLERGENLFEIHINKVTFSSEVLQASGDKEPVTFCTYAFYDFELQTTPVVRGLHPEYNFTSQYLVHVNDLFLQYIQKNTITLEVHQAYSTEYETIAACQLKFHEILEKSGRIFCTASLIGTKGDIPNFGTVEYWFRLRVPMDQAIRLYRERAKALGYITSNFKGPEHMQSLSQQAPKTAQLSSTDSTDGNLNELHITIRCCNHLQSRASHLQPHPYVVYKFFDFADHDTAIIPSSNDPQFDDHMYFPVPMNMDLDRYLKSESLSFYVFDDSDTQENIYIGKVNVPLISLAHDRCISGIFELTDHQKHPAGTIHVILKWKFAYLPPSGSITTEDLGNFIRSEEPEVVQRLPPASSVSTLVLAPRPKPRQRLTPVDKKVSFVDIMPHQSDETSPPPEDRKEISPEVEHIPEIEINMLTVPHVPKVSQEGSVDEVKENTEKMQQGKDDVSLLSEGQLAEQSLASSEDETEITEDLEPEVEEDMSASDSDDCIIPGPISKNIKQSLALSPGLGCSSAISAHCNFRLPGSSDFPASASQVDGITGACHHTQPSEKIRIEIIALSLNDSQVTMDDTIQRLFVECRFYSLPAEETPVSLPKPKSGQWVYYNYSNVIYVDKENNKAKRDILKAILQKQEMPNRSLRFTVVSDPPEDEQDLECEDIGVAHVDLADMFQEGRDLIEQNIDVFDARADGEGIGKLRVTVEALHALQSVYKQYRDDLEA

| effect of a mutation on the interaction | Substance |
| --- | --- |
| decreasing interaction strength | Protein fantom (Homo sapiens), Q68CZ1 A229T |
| decreasing interaction strength | Protein fantom (Homo sapiens), Q68CZ1 A695P |
| decreasing interaction strength | Protein fantom (Homo sapiens), Q68CZ1 T615P |
| with no effect | Protein fantom (Homo sapiens), Q68CZ1 T677I |
